# According to patent US20080108546A1 (VLAAMS INTERUNIVERSITAIR INSTITUUT, published 2008):
# Target: T1, E-epitope tagged human RIP2 (human, UniProt O43353 1-540)
# T1 construct: ORF cloned in pCAGGS-E, expressed in 293T cells; also called E-RIP2
# Assay: co-immunoprecipitation from 293T lysates, anti-Flag IP, anti-E immunoblot
# Experimental: FIG. 4: Interactions of INCA with other CARD-containing proteins. Co-immunoprecipitation assays were performed using lysates from 293T cells that have been transiently transfected with plasmids encoding various epitope-tagged proteins as indicated, including Flag-INCA, E-INCA, E-procaspase-1, E-COP, E-ICEBERG, E-RIP2 and E-procaspase-2 CARD. Immunoprecipitates were prepared using anti-Flag antibody adsorbed to protein G-sepharose and analyzed by SDS-PAGE/immunoblotting using anti-E epitope tag antibody and chemoluminescence-based detection. Aliquots of the same lysates were also analyzed directly by SDS-PAGE/immunoblotting as indicated. IP, immunoprecipitation; WB: Western blotting.
# 293T is a human embryonal kidney carcinoma cell line. 293T cells were routinely transfected using the calcium phosphate precipitation method (O'Mahoney and Adams, 1994). Cells were seeded the day before transfection at 2×10⁵ cells/6-well. Cells were transfected for 4 h, washed and incubated for another 24 h before lysates were prepared by harvesting the cells and lysing them in ice-cold NP-40 lysis buffer (10 mM HEPES pH 7.4, 142.5 mM KCl, 0.2% NP-40, 5 mM EGTA), supplemented with 1 mM DTT, 12.5 mM β-glycerophosphate, 1 mM Na₃VO₄, 1 mM PMSF, and 1× protease inhibitor mix (Roche, Basel, Switzerland). […] Alternatively, lysates were analyzed directly by immunoblotting after normalization for total protein content. […]
# T1 sequence (O43353 whole entry): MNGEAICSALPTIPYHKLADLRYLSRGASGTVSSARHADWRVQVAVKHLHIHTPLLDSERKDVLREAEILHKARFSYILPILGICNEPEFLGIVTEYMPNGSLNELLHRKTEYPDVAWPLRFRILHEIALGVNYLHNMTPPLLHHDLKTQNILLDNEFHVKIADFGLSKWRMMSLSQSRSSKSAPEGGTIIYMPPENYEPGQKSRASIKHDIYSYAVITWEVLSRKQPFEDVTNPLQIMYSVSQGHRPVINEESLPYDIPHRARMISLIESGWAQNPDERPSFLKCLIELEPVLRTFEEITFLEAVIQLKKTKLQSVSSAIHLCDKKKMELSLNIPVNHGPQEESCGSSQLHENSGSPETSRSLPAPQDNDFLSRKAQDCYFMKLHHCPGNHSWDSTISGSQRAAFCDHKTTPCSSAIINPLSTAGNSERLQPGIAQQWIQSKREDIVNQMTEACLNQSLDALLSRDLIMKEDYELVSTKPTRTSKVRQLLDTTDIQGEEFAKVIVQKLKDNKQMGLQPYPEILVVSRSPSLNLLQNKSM
binder,measurement,value
"Flag-tagged INCA (Inhibitory CARD) (other, not shown: small tags and cut ends, Expressed in 293T cells (pCAGGS-Flag) for co-immunoprecipitation; Flag-tagged INCA also expressed stably in THP-1 cells from a retroviral vector; also called Flag-INCA) MADKVLKEKRKQFIRSVGEGTINGLLGELLETRVLSQEEIEIVKCENATVMDKARALLDSVIRKGAPACQICITYICEEDSHLAGTLGLSAGPTSGNHLTTQDSQIVLPS",binding result,no binding
